Laboratory results from patent CN114591431A (MEISWEI SHANGHAI BIOTECHNOLOGY CO LTD, dated 2022).

T1: 重组人GAS6 his 蛋白(Novoprotein，Cat#C01W) (human, UniProt Q14393 31-678, limits assumed)
T1 construct: Bought protein; not shown: His tag
T1 sequence (looked up): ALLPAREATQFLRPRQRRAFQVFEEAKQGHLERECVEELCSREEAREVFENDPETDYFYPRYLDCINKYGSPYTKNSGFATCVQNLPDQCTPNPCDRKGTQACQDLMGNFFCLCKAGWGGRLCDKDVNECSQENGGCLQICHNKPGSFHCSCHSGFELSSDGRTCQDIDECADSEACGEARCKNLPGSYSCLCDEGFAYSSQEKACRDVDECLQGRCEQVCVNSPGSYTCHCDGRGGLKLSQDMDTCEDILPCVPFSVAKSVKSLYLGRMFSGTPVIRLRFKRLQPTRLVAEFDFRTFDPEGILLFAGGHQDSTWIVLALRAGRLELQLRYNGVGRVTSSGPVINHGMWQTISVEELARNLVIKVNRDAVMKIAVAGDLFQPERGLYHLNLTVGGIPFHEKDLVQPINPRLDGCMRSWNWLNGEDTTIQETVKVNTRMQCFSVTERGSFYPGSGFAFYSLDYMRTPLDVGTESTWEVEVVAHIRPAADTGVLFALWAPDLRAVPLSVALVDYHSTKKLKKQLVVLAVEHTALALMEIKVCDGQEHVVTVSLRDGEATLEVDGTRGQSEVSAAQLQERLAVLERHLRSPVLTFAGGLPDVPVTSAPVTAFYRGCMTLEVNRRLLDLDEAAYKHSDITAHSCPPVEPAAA

T2: 鼠GAS6 his蛋白(Sino Biological，Cat#58026-M08H) (mouse, UniProt Q61592 28-674)
T2 construct: Bought protein; also called 小鼠 GAS6; not shown: His tag
T2 sequence (looked up): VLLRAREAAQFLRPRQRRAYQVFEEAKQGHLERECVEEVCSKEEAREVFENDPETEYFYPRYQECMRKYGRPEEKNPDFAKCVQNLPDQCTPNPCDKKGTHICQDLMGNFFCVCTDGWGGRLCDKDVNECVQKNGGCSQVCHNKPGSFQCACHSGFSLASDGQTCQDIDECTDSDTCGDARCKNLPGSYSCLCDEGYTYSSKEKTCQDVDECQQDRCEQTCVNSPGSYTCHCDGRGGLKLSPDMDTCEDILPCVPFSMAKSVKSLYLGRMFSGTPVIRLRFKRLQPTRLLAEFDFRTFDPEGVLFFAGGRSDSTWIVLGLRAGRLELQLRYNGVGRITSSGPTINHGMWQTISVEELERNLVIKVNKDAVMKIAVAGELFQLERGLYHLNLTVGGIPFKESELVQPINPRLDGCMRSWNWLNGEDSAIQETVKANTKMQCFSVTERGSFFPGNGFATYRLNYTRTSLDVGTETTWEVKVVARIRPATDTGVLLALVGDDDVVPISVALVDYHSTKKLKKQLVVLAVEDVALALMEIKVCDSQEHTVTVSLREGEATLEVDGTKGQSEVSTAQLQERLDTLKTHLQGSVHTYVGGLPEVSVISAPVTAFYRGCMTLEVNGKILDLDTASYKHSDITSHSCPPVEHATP

T3: 重组人Protein S his 蛋白(R&D，Cat# 9489-PS) (human, UniProt P07225 42-676, limits assumed)
T3 construct: Bought protein; not shown: His tag
T3 sequence (looked up): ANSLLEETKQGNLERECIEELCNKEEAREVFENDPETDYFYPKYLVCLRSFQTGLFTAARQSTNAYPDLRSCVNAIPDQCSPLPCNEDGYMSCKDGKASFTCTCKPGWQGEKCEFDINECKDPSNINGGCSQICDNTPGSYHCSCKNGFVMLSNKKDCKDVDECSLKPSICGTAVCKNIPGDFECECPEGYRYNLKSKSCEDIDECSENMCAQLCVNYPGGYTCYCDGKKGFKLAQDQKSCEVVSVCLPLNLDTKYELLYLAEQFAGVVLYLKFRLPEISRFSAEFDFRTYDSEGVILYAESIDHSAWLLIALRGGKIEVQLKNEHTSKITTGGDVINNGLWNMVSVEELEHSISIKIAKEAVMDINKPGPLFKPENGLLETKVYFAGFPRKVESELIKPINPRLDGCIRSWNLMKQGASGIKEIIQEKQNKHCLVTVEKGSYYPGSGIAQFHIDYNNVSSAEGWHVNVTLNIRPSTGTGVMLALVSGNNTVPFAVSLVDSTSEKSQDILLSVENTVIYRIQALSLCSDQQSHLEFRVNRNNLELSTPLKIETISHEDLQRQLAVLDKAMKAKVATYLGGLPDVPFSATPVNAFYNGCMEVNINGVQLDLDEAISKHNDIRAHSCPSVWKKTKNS

B1: ch18I16C6 (antibody, human IgG1, kappa, V domains shown)
VH: EVKIEESGGGLVKPGGSLKLSCAASGFTFSSYAMSWFRQTPEKRLEWVASISSGGNSYYPDSVKGRFTISRDNARNILYLQMSSLRSEDTAMYYCSRTPDYWGQGTTVTVSS
VL: DVVMTQSPSSMCASLGERVTITCKASQDINTYLSWFQQKPGKSPKTLIYRANRLVDGVPSRFSGSGSGQDYSLTISSLEYEDMGIYYCLQYDEFPFTFGSGTKLEIKR
notes: Human-mouse chimeric antibody, hIgG1 (G1m3) / human kappa (Km3), made in HEK293; also called ch18I16C6-IgG
B2: ch2O18G6 (antibody, human IgG1, kappa, V domains shown)
VH: QVQLQQSGPELVKPGASVKISCKTSGNTFTEYIMHWVKQSHGKSLEWIGGINPKNGGTSYNQKFKGKATLTVDKSSRTAYMELRSLTSEDSAVYYCARVRIPPYVYYAMDYWGQGTTVTVSS
VL: DVVVTQTPLSLPVSLGDQASISCRSSQSIVHSNGNTYLEWYLQKPGQSPKLLIYKVSNRFSGVPDRFSGSGSGTDFTLKISRVEAEDLGVYYCFQGSHVPYTFGGGTKLEIKR
notes: Human-mouse chimeric antibody, hIgG1 (G1m3) / human kappa (Km3), made in HEK293; also called ch2O18G6-IgG
B3: ch15G5E5 (antibody, human IgG1, kappa, V domains shown)
VH: EVQLQQSGPELVKPGASVKMSCKASGYTFTDDYMKWVKQSHGKSLEWIGDINPNNGGTIYNQKFKGKAILTVDKSSSTAYMQLNSLTSEDSAVYYCARRGRGSWGQGTTVTVSS
VL: DVLMTQTPLSLPVSLGDQASISCRSSQSIVYSNGNTYLEWYLQKPGQSPKLLIYRVSNRFSGVPDRFSGSGSGTDFTLKISRVEAEDLGIYYCFQGSHVPLTFGAGTKLELKR
notes: Human-mouse chimeric antibody, hIgG1 (G1m3) / human kappa (Km3), made in HEK293; also called ch15G5E5-IgG
B4: ch2D3C6 (antibody, human IgG1, kappa, V domains shown)
VH: DIQLQESGPGLVKPSQSLSLTCSVTGYSITNGYYWNWIRQFPGNKLEWMGYISYDGTNNYNPSLKNRISITRDTSKNQFFLKLNSVTTEDTATYYCARRALWYYAMDYWGQGTSVTVSS
VL: DIVMTQSPASLAVSLGQRATISCKASQSVDYDGESYMNWYQQKPGQPPKLLIYVASNLESGIPARFSGSGSGTDFTLNIHPVEEEDAATYYCQQSDEDPYTFGGGTKLEIKR
notes: Human-mouse chimeric antibody, mouse VH/VL cloned into pTT5_hIgG1.G1m3 / pTT5_hKappa.Km3, made in HEK293; also called ch2D3C6-IgG
B5: ch11B11D12 (antibody, human IgG1, kappa, V domains shown)
VH: QVQLQQSGAELAKPGASVKMSCKASGYTFTRYWIHWVKQRPGQGLEWIGYIIPSTGYTEYSQRFKDKATLTADKSSNTAYMQLSSLTSEDSAVYYCTRYYRYAKYVMDYWGQGTTVTVSS
VL: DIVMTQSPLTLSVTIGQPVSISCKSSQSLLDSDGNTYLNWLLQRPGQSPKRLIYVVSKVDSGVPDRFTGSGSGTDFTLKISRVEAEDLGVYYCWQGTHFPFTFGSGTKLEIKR
notes: Human-mouse chimeric antibody, hIgG1 (G1m3) / human kappa (Km3), made in HEK293; also called ch11B11D12-IgG

Columns and labels:
[1] = target: T1, 重组人GAS6 his 蛋白(Novoprotein，Cat#C01W); assay: ELISA, coated human GAS6 his 0.5 ug/ml
[2] = target: T2, 鼠GAS6 his蛋白(Sino …); assay: ELISA, coated mouse GAS6 his 0.5 ug/ml
[3] = target: T3, 重组人Protein S his 蛋白(R&D，Cat# 9489-PS); assay: ELISA, coated human Protein S his 1 ug/ml

Binder	EC50 [1] [nM]	EC50 [2] [nM]	EC50 [3] [nM]
B1	0.11	0.1	0.008
B2	0.21	0.22	0.025
B3	0.16	4.94	0.2
B4	0.19	1.42	–
B5	0.18	0.15	–
